19 sequences from the DeepSol protein solubility set can be followed below.

The data set is described as follows: soluble on expression in E. coli; label from the status in PepcDB or PDB records.
On to “MDADVIVVGAGLAGLVAAHELTSRGRRVALVDQENAANLGGQAFWSFGGLFLVDSPEQRRLGVKDSLDLAWNDWQGSAGFDRTEDEDSWAVRWARAYVEWAAGEKRSWLAGHGITFLPTVGWAERGDLRAGGHGNSVPRFHIAWGTGTGVVEPFVRYAKQAARDGLLTFHHRHRVDHLVVEDGTARGVRGTVLAPDDSPRGVASSRDTAGEFELAAQAVIVTSGGIGADHDIVRRHWPERLGTPPAEMVTGVPAYVDGRMLGISAEAGARLVNRDRMWHYTEGVRNWDPIWPGHGIRILPGPSSMWFDALGRRLPEPYLPGYDTLGTLRHLRTAEGLAEHGHSWFVLTRKIIEKEFALSGSEQNPDITAKDRAGFLRERVLGKGAPGPVGAFLRHGADFVTAPDLEQLVEKMNRLTDKPLLDAAALRRQIEARDLQLANPYAKDAQVQGIRNARRYIGDRLGRVATPHRLLDPAAGPLIGVKLHILTRKTLGGIQTDLDSRALGADGTPVEGLYAAGEVAGFGGGGVHGYNALEGTFLGGCLFSGRAAGRAAARQTALEHHHHHH”, for which the “soluble on expression in E. coli” value is “not soluble”.
Then “MDAIFNNNFEKYKDDPEMTRALMTSKESLEDENWDTYLQWFKENKYEVLEVKEGKNKSTLTVKATFNSFADIPNDDVMGIIFTEVYKASKNKIKSLDEEDDIFDEEFMINVTNKLMDKSKKETKEIKVYMDKVNGKWDLIEDEDNDDDIVNMELISTMTPLLEKFLEITTEFEGFEGF”, with “not soluble”.
With “MDAIVMAGGFGQRLGMGEKPCVELLGKPLITYVIDNLRASKNIDRVFVAVSPVTPKTEIMIQERYKGEVQVIRTFGGNYVGDMIHAVETSNTAGPVMIIMSDLPLVNPDLIDSVIEKYREEGKPALSVYVPINVCRGTGTRPDTVFNKDGKLIVPAGVNILDSSQIRKEQEDFNLILDNPRLAINVNTVKDLQRCKDLLQCSN” the entry was “soluble”; with “MDAPLAEQDLKALFLRHARQLQSYLLRKTRDPHLAADLAQESFLRLAEQRHKEPIEHVDAYLYRTAHNLTIDHYRQERRRRTETQPNDDLAGFVADQPGPEESAVDADALARLREIVAELPPRTREIFRLNRLEGLTHAEVARRLEISDSSVQKHLARTLAHVMQALEDSR”, “not soluble”; with “MDARIVNALIGSVYETIRDVLGIEPKTGKPSTVSHIEIPHSLVTVIGITGGIEGSLIYSFSSETALKVVSAMMGGMEYNQLDELALSAIGELGNMTAGKLAMKLEHLGKHVDITPPTVVSGRDLKIKSFGVILKLPISVFSEEDFDLHLSVKSGG”, “soluble”.
Then “MDAVSKAAIRLLDTIGITGVTKVNTYAGPEQEYFLIDKKFYAQRPDLIMTGRTLLGALPPKGQQLEDHYFGSIPDRVLEFMQEVEEELFLLGIPAKTRHNEVAPHQFEIAPIFEQVNLASDHNLLVMEVMRKVADKKGFALLLFEKPFAGINGSGKHNNWSIGIDGGMNLLDPGDTPESNISFLVFLVAVLKGVLKRSAILRASVASIGNDHRLGANEAPPAVITVFLGDLLEKVLDAIESGKVDLKTEKQILDLGLSHVPVLNKDYTDRNRTSPFAFTGNKFEFRAVGSSQPISVPNMVLNTIMAEALDDLNAEILAKIEGGMAKEDAILAAVRDGIIATKAVRYPGDNYSEDLQRAAAERGLPNMKNTPESVRAWTDKDTVSMFVKYGVLTAEEIESRYNVRIERYVKGIDI”, with “not soluble”; and “MDDIVPDVLDAVPAGTIKVIYGDDLEVKQGNELTPTQVKDQPIVSWSGLEGKSNLLTLLMVDPDAPTRQDPKYREILHWSVVNIPGSNENPSGGHSLADYVGSGPPKDTGLHRYIFLLYRQENKIEETPTISNTTRTGRLNFNARDFAAKHGLGEPIAANYYQAQYDDYVPIRNKTIVG”, with “soluble”; and “MDDPNRIVSASRRPKALIRLLDSQQIEVVLHSRLSVEDVLRLVAEKVDLSFPDSQYFCLGFSDNLNNFHWLDGSVILYDLVASTSNPKGTLTLSHHVRFFVDTIYEVQCASTAKLFFFDIHNQLARHELLVTSEDYFELVAILVSVFVPDCQEHTTAEAISRIMPMSHPPYILLKTDQSEVERRVFEKFRYYRRLPVGTGMISFIKLAEKSESYGYRMYEALNENNDKCILSIGYKGIYIYRRSRHQNLITPYLAYPWRVIDNLYYRDKKFSIEIREPKNSLHSNSSIGTMPSAKIGDGSTSSLPMSSAKPMSTQTSEPQLPDVPEPNESLHNKTIDEFQKDQEKCDRLKARKAELEMRLRQKMQELKDVCVEEGDITGEMPVEINDVVLPGDDFPRLKRRVGTAYSIPDELIKADKADKMSQLETDVELHRRIVAAASRLATDKNTNKSVRKKRQKDLQAARLRLNRLEQGLQQMRHSASKPDISSLTSDSSNSWTASNSSGPMLTMAMTKSCPTTPRGSVPDLRNGLDDEKDEFDENVEDRVSRRAPSAISRHSLSQRYSGVSSSSTSSGSDSMGLGLPPRPTSRKSQQQQTTPFDDQLDNPMICEIPPPPSSAAAHPLLVTNLLSRGKTTGCRVLTEYYPVLKRIRTNY”, with “not soluble”.
Turning to “MDDSTLRDRLEQLGLSEKEVDTYLSILSSGEATASEIADDTGVSKRYVYSISESLEDRGFVEVNDHVVPTTIRARPPEEVIDALTDRLEEMSGALDSRYSASAREPQQFDVIKSRVTVIKRLTEYIRNAEREIMLSVPQQYLPEISEELGAAVDRGVLVMLVVSSADNLRSDDASGLASVVRSWDQPMPIMLTVDAQFGLVSPAEMVTRTNSDQRAIAFVQQQLVPVLSGSFLGNYWLMATEVAVTDPAPLPATYHDFRHAVLQATLHLRADHDIHVSADVRAVQADDDTTTIEGTVVETKQGLVEPETNSYPIEHTLVVDIGDRTVSLGGSGSFLEDYETDAVTLSLAE”, the “soluble on expression in E. coli” value is on record as “not soluble”.
With “MDEKTKKAEEMALSLTRAVAGGDEQVAMKCAIWLAEQRVPLSVQLKPEVSPTQDIRLWVSVEDAQMHTVTIWLTVRPDMTVASLKDMVFLDYGFPPVLQQWVIGQRLARDQETLHSHGVRQNGDSAYLYLLSARNTSLNPQELQRERQLRMLEDLGFKDLTLQPRGPLEPGPPKPGVPQEPGRGQPDAVPEPPPVGWQCPGCTFINKPTRPGCEMCCRARPEAYQVPASYQPDEEERARLAGEEEALRQYQQRKQQQQEGNYLQHVQLDQRSLVLNTEPAECPVCYSVLAPGEAVVLRECLHTFCRECLQGTIRNSQEAEVSCPFIDNTYSCSGKLLEREIKALLTPEDYQRFLDLGISIAENRSAFSYHCKTPDCKGWCFFEDDVNEFTCPVCFHVNCLLCKAIHEQMNCKEYQEDLALRAQNDVAARQTTEMLKVMLQQGEAMRCPQCQIVVQKKDGCDWIRCTVCHTEICWVTKGPRWGPGGPGDTSGGCRCRVNGIPCHPSCQNCH” the entry was “soluble”; with “MDELRELLKAEQQAIKIYKEVLKKAKEGDEQELARLIQEIVKAEKQAVKVYKEAAEKARNPEKRQVIDKILEDEEKHIEWLKAASKQGNAEQFASLVQQILQDEQRHVEEIEKKN”, “soluble”.
Then “MDESVDPVELLLRLLIRHKPHLKPYAYRQDSWQRVLDEYNRQTGSRYRQSRTLKTKFRRLKDLFSADRAQFSPSQLKLMGALLDEAPEHPRPRTKFGNESSSSLSSSSFIKSHPGPDPFQQLSSAEHPNNHSSDDEHSGSQPLPLDSITIGIPPTLHTIPMILSKDNDVGKVIKSPKINKGTNRFSETVLPPQMAAEQSWSDSNMELEICLDYLHNELEVIKKRQEDFECKVLNKLNIIEALLSQMRPPSQGDKI”, with “soluble”.
Turning to “MDFKTVMQELEALGKERTKKIYISNGAHEPVFGVATGAMKPIAKKIKLNQELAEELYATGNYDAMYFAGIIADPKAMSESDFDRWIDGAYFYMLSDYVVAVTLSESNIAQDVADKWIASGDELKMSAGWSCYCWLLGNRKDNAFSESKISDMLEMVKDTIHHSPERTKSAMNNFLNTVAISYVPLHEKAVEIAKEVGIVEVKRDNKKSSLLNASESIQKELDRGRLGFKRKYVRC”, the “soluble on expression in E. coli” value is “soluble”.
With “MDFLEKVLDNQVTESKELVRLYDYDLYTLGEVADRMRQNMHQKIVYFNVNRHLNPSNICADACKFCAFSAHRKNPNPYEMSLEEILEKVKNSYNKGIKEVHIVSAHNPNYSYEWYLKVFETIKQEMPNLHLKAMTAAEVHFLSVKFNKPFELVLEDMLKAGVDSMPGGGAEIFDEEIRRKICNGKVGSSRWLEIHAYWHKLGKMSNATMLFGHIENKIHRIDHMLRIKKIQSPKNQVENKEGGFNAFIPLLYQKENNYLNVEKSPSAIEILKTIAISRILLNNIPHIKAYWATLGLNLALVAQEFGANDLDGTIEIESIQSAAGAKSRHGLEKEDLIFKIKDAGFVAVERDSLYNFIQKF” the entry was “not soluble”.
Then “MDFLQGDRGDYKSALGSLQQVGYGSVIAKIRLAFNATGSVLRKRVLKEEQIEETVAKELEERRRTWDVNNGQFDKFSQWYIEYRKNLWHKDDYLPWLLYENEISCLKLTFDVCERPPRRINYGGRNRYTCEN”, with “not soluble”; and “MDFNLNDEQELFVAGIRELMASENWEAYFAECDRDSVYPERFVKALADMGIDSLLIPEEHGGLEAGFVTVAAVWMELGRLGAPTYVLYQLPGGFNTFLREGTQEQIDKIMAFRGTGKQMWNSAITEPGAGSDVGSLKTTYTRKNGKVYLNGSKCFITSSAYTPYIVVMARDGASPDKPVYTEWFVDMSKAGIKVNKLEKLGLRMDSCCEITFDDVELDEKDMFGREGNGFNRVKEEFDHERFLVALTNYGTAMCAFEDAARYANQRVQFGEAIGRFQLIQEKFAHMAIKLNSMKNMLLEAAWKADNGTITSGDAAMCKYFCANAAFEVVDTAMQVLGGVGIAGNHRITRFWRDLRVDRVSGGSDEMQILTLGRAVLKQYR”, with “not soluble”.
Then “MDGDIIDQYRFPSPHPGIDVFFVTYMSQGLKVKGFLAAPKRKGVYDGFLYLRGGIKNVGQVRVPRLVQFASQGFVVFAPLYRGNGGGEGNEDFAGDDRYDALAGFHLLRRHPLVHPGRVHMFGFSRGGAMALHAAVMAEGVCSVAVWGGVADLELTYWERPDLRRMMKRVIGGTPNKCPERYRHRTPLYHLERLKAPVLIIHGGRDENVSIEHAWRLERRLKQLGKPVTAWYFPEFTHYFPPQANRETVQRLTEWMKQQPTM”, with “not soluble”; and “MDGMGTLTRYLEEAMARARYELIADEEPYYGEIPDLPGVWATGKSLKECEANLQAALEDWLLFLLSRGETPPPLGEVRIELPHGEAA”, with “soluble”; and “MDHRAQAREVFVRAQLEAVQKAITKNEVPLKPKHARTIIVGTHKEKSSGIFWHTVGRIQLEKHPVLTWKFCHLVHKLLRDGHRKVPEETYRYVNRFTQLSQFWKHLNTSGYGPCIESYCKLLHDRVTFHNKYPVVPGKLDLNDSQLKTLEGDLDNMFEMTIDMLDQMDALLVLQDRVYEMMNSLRWNSLIPQGQCMLSPLIIAILDTSKFYDYLVKMIFKLHSQVPPDALEGHRSRFRTIFERTKKFYEESSNLQYFKYLVSIPTLPSHAPNFLQQSDLESYRTPHAYLHSEGSEDGTSLNGHDGELLNLAEAEPQQASPSSQPDPREEQIVMLSRAVEDEKFAKERLIQEARSRIEQYENRLLQMQGEFDHAKREADENREEAQRLKNELALRDASRTQTDDARVKEAELKATAAEERFNKMKGVYEKFRSEHVLALTKLGDIQKQLEASEKSKFDKDEEITALNRKVEEAQREAGRALTKAEGDAGAVDEMRTQLVKADIEVEELKRTIDHLRESHANQLVQSSAEETNKIRLAELEVAKESGVGITQMFDHCEDALQNATSITYPPHLAQSAMNNLVNILSNERLDEPLATKDNVFAGHLLSTTLSAAASAAYTASIESYEGVNDQCKKVLAAAKVAFSDDSALSRADKMKLLRQDIQTLNSLMISLPLQTDIDKDVVGNELEQEMRRMDDAIRRAVQEIEAIQRRARESSDGIRLEVNESILANCQALMSVIMQLVIASRELQTEIVAAGKAGGSPAEFYKRNHQWTEGLLSAAKAVGVAARVLVESADGVVTGKGKFEHLIVAAQEIAASTAQLFVSSRVKADKDSSKLDALSVAAKAVNQNTAQVVAAVKNGQTTLNDEGSLDFSYLSLHAAKKEEMESQVKMLELEQSLNQERAKLAALRKQHYHMAQLVANKEGEEAQE”, with “not soluble”.
